# Experimental data: patent publication US20110275122A1
# Several values for one entry are separate records, joined by “and”; a condition that tells them apart may be missing. Identical values can stand only once. Where no end group is shown, it is not given here.
# B1: SEQ ID NO: 117 (TPO-mimetic fusion protein of Table 13) (Fc fusion, not shown: a dimerising Fc or GST)
# chain: SAIEGPTLRHWLAWRAML
# modifications: also: Fc fusion, side and linker not given here
# B2: SEQ ID NO: 225 (TPO-mimetic fusion protein of Table 13) (Fc fusion, not shown: a dimerising Fc or GST)
# chain: LTMEGPTLRHWLAARATR
# modifications: also: Fc fusion, side and linker not given here
# B3: SEQ ID NO: 9 (TPO-mimetic fusion protein of Table 13) (Fc fusion, not shown: a dimerising Fc or GST)
# chain: QGCSSGGPTLREWQQCRRMQHS
# modifications: cysteine pairing not given here; also: fused to an Fc molecule, side and linker not given here
# B4: Fc-Loop-(SEQ ID NO: 456) (Fc fusion, part only; not given: Fc and insertion site, part only)
# chain, part: CSSGGPTLREWQQCGRAQ
# modifications: cysteine pairing not given here; also: peptide inserted in a loop of an Fc
# B5: SEQ ID NO: 241 (TPO-mimetic fusion protein of Table 13) (Fc fusion, not shown: a dimerising Fc or GST)
# chain: ICTEGCTLRLWLAERSRV
# modifications: cysteine pairing not given here; also: Fc fused at N- or C-terminus, side and linker not given here
# B6: SEQ ID NO: 171 (TPO-mimetic fusion protein of Table 13) (Fc fusion, not shown: a dimerising Fc or GST)
# chain: WPMEGPTLRHWLAARAAR
# modifications: also: Fc fusion, side and linker not given here
# B7: SEQ ID NO: 123 (TPO-mimetic fusion protein of Table 13) (Fc fusion, not shown: a dimerising Fc or GST)
# chain: WVMEGPTLRHWLAARASL
# modifications: also: Fc fusion, side and linker not given here
# B8: SEQ ID NO: 163 (TPO-mimetic fusion protein of Table 13) (Fc fusion, not shown: a dimerising Fc or GST)
# chain: HPIEGPTLRLWLAARARA
# modifications: also: Fc fusion, side and linker not given here
# B9: SEQ ID NO: 149 (TPO-mimetic fusion protein of Table 13) (Fc fusion, not shown: a dimerising Fc or GST)
# chain: AWMEGPTLRHWLAARAAY
# modifications: also: Fc fusion, side and linker not given here
# B10: SEQ ID NO: 115 (TPO-mimetic fusion protein of Table 13) (Fc fusion, not shown: a dimerising Fc or GST)
# chain: WMMEGPTLRHWLAARARY
# modifications: also: Fc fusion, side and linker not given here
# B11: SEQ ID NO: 11 (TPO-mimetic fusion protein of Table 13) (Fc fusion, not shown: a dimerising Fc or GST)
# chain: QGCSWGGPTLKNWLQCVRAKHS
# modifications: cysteine pairing not given here; also: fused to an Fc molecule, side and linker not given here
# B12: SEQ ID NO: 139 (TPO-mimetic fusion protein of Table 13) (Fc fusion, not shown: a dimerising Fc or GST)
# chain: DAIEGPTLRLWLEARRKQ
# modifications: also: Fc fusion, side and linker not given here
# B13: SEQ ID NO: 128 (TPO-mimetic fusion protein of Table 13) (Fc fusion, not shown: a dimerising Fc or GST)
# chain: YYLEGPTLRHWLAARAYL
# modifications: also: Fc fusion, side and linker not given here
# B14: SEQ ID NO: 103 (TPO-mimetic fusion protein of Table 13) (Fc fusion, not shown: a dimerising Fc or GST)
# chain: YMMEGPTLRHWLATRAGR
# modifications: also: Fc fusion, side and linker not given here
# B15: Fc-Loop-(SEQ ID NO: 455) (Fc fusion, part only; not given: Fc and insertion site, part only)
# chain, part: CSSGGPTLREWQQCQRAQ
# modifications: cysteine pairing not given here; also: peptide inserted in a loop of an Fc
# B16: Fc-Loop-(SEQ ID NO: 454) (Fc fusion, part only; not given: Fc and insertion site, part only)
# chain, part: CSSGGPTLREWQQCSRAQ
# modifications: cysteine pairing not given here; also: peptide inserted in a loop of an Fc
# Biological target: human mpl receptor (human) (UniProt P40238)
# Assay: cell-based or functional assay
row,Binder,Pb EC50
1,B1,1.09 ng/mL
2,B2,3.1 ng/mL
3,B3,0.44 ng/mL
4,B4,2.31 ng/mL
5,B5,1.83 ng/mL
6,B6,1.56 ng/mL
7,B7,2.08 ng/mL
8,B8,2.8 ng/mL
9,B9,1.84 ng/mL
10,B10,1.43 ng/mL and 1.81 ng/mL
11,B11,4.01 ng/mL
12,B12,1.89 ng/mL
13,B13,1.82 ng/mL
14,B14,0.79 ng/mL
15,B15,0.27 ng/mL
16,B16,0.28 ng/mL
